# Laboratory results: article PMC2935145
# Target: Hr domain from the Acidothermus cellulolyticus P_(1B-5)-ATPase (P_(1B-5)-Hr) (Acidothermus cellulolyticus 11B)
# Experiment: SEC
substance,measurement,value
Hr domain from the Acidothermus cellulolyticus P_(1B-5)-ATPase (P_(1B-5)-Hr) (domain or fragment),stoichiometry N,2
